These results are taken from patent publication EP4682166A1 (Guangzhou Enmai Biotechnology Co., Ltd, dated 2026).

Experiment [1] deals with T1, human NMI (N-myc Interacting protein), recombinant protein (human, UniProt Q13287 1-307, limits assumed).
T1 construct: Gene ID: 9111; also called hNMI; antigen
T1 sequence (looked up): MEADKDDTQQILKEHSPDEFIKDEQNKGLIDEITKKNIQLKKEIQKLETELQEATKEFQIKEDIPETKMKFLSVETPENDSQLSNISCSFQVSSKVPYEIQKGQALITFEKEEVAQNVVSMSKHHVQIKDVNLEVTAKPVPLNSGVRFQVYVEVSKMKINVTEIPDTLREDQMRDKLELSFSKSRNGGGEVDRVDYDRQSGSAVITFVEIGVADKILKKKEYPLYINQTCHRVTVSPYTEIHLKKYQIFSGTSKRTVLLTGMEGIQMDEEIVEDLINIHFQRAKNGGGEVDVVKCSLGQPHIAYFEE
Put plainly: ELISA EC50 against parent 98G10.

The target in experiment [2] is T1, human NMI (N-myc Interacting protein), …. Put plainly: ELISA, binding to hNMI. Background: ELISA stands for enzyme-linked immunosorbent assay.
For experiment [3] the target is unchanged. Put plainly: ELISA EC50 against parent 240B10-1.

Bounds are passed on as bounds.

B1: 98G10-H-14 (antibody, V domains shown)
VH: QEQLEESGGDLVKPEGSLTLTCTASGFSFSASYDICWVRQAPGKGLEWIACIYGGSSGSAYYASWAKGRFTISKTSSTTVTLQMTSLTAADTATYFCARAGYYNYGSAGDISPSSFKLWGPGTLVTVSS
VL: DIVMTQTPASVEAAVGGTVTINCQASQSISTALAWYQQKPGQPPKLLIYTASKVASGVPSRFSGSGSGTQFTLTISDLECADAATYYCQNYYYSSSSITFGGGTEVVVK
notes: also called 98G10 W34D, Y112S (VH)
One may read the EC50 as the concentration needed to bring the measured effect to its halfway point. Turning to B1, the “Fold decrease in affinity” value in experiment [1] worked out at 48.1 fold. For the same molecule, the EC50 in experiment [2] stood at 1.49 µg/mL.

B2: 98G10-L-1 (antibody, V domains shown)
VH: QEQLEESGGDLVKPEGSLTLTCTASGFSFSASYWICWVRQAPGKGLEWIACIYGGSSGSAYYASWAKGRFTISKTSSTTVTLQMTSLTAADTATYFCARAGYYNYGSAGDIYPSSFKLWGPGTLVTVSS
VL: DIVMTQTPASVEAAVGGTVTINCQASQSISTALAWYQQKPGQPPKLLIYTASKVASGVPSRFSGSGSGTQFTLTISDLECADAATYYCQNYYRSSSSITFGGGTEVVVK
notes: also called 98G10 Y93R (VL)
With B2, the “Fold decrease in affinity” value in experiment [1] worked out at 2.81 fold. In addition, the EC50 in experiment [2] was 0.087 µg/mL.

B3: 98G10-L-3 (antibody, V domains shown)
VH: QEQLEESGGDLVKPEGSLTLTCTASGFSFSASYWICWVRQAPGKGLEWIACIYGGSSGSAYYASWAKGRFTISKTSSTTVTLQMTSLTAADTATYFCARAGYYNYGSAGDIYPSSFKLWGPGTLVTVSS
VL: DIVMTQTPASVEAAVGGTVTINCQASQSISTALAWYQQKPGQPPKLLIYTASKVASGVPSRFSGSGSGTQFTLTISDLECADAATYYCQNYYQSSSSITFGGGTEVVVK
notes: also called 98G10 Y93Q (VL)
In the case of B3, the “Fold decrease in affinity” value in experiment [1] turned out to be 2.13 fold. In experiment [2], the EC50 worked out at 0.066 µg/mL.

B4: 98G10-L-2 (antibody, V domains shown)
VH: QEQLEESGGDLVKPEGSLTLTCTASGFSFSASYWICWVRQAPGKGLEWIACIYGGSSGSAYYASWAKGRFTISKTSSTTVTLQMTSLTAADTATYFCARAGYYNYGSAGDIYPSSFKLWGPGTLVTVSS
VL: DIVMTQTPASVEAAVGGTVTINCQASQSISTALAWYQQKPGQPPKLLIYTASKVASGVPSRFSGSGSGTQFTLTISDLECADAATYYCQNYYSSSSSITFGGGTEVVVK
notes: also called 98G10 Y93S (VL)
In the case of B4, in experiment [1], the “Fold decrease in affinity” value was 1.71 fold. The EC50 in experiment [2] is 0.053 µg/mL.

B5: 240B10-1 mutant D27K (VH) (antibody, V domains shown)
VH: QSLEESGGRLVTPGGSLTLTCTVSGIKLSSYTMGWVRQAPGKGLEYIGIISGGGRTYYASWAKGRFTISKTSSTTVDLKVTSLTTEDTATYFCARIYTLWGQGTLVTVSS
VL: QVLTQTLASVSAAVGGTVTINCQSSQSVYNNDYLAWFQQKSGQPPKQLIHSASKLASGVPSRFKGSGSGTQFTLTINDVQCDDAATYYCLGGYDCYSADCNVFGGGTEVVVK
As to B5, the “Fold decrease in affinity” value in experiment [3] was more than 500 fold.

B6: 240B10-1 mutant S30E (VH) (antibody, V domains shown)
VH: QSLEESGGRLVTPGGSLTLTCTVSGIDLSEYTMGWVRQAPGKGLEYIGIISGGGRTYYASWAKGRFTISKTSSTTVDLKVTSLTTEDTATYFCARIYTLWGQGTLVTVSS
VL: QVLTQTLASVSAAVGGTVTINCQSSQSVYNNDYLAWFQQKSGQPPKQLIHSASKLASGVPSRFKGSGSGTQFTLTINDVQCDDAATYYCLGGYDCYSADCNVFGGGTEVVVK
As for B6, in experiment [3], the “Fold decrease in affinity” value was more than 500 fold.

B7: 240B10-1 mutant S29E (VH) (antibody, V domains shown)
VH: QSLEESGGRLVTPGGSLTLTCTVSGIDLESYTMGWVRQAPGKGLEYIGIISGGGRTYYASWAKGRFTISKTSSTTVDLKVTSLTTEDTATYFCARIYTLWGQGTLVTVSS
VL: QVLTQTLASVSAAVGGTVTINCQSSQSVYNNDYLAWFQQKSGQPPKQLIHSASKLASGVPSRFKGSGSGTQFTLTINDVQCDDAATYYCLGGYDCYSADCNVFGGGTEVVVK
For the molecule B7, the “Fold decrease in affinity” value in experiment [3] is more than 500 fold.

B8: 240B10-1 mutant G52Q (VH) (antibody, V domains shown)
VH: QSLEESGGRLVTPGGSLTLTCTVSGIDLSSYTMGWVRQAPGKGLEYIGIISQGGRTYYASWAKGRFTISKTSSTTVDLKVTSLTTEDTATYFCARIYTLWGQGTLVTVSS
VL: QVLTQTLASVSAAVGGTVTINCQSSQSVYNNDYLAWFQQKSGQPPKQLIHSASKLASGVPSRFKGSGSGTQFTLTINDVQCDDAATYYCLGGYDCYSADCNVFGGGTEVVVK
On to B8, for which the “Fold decrease in affinity” value in experiment [3] was more than 500 fold.

B9: 240B10-1 mutant S30K (VH) (antibody, V domains shown)
VH: QSLEESGGRLVTPGGSLTLTCTVSGIDLSKYTMGWVRQAPGKGLEYIGIISGGGRTYYASWAKGRFTISKTSSTTVDLKVTSLTTEDTATYFCARIYTLWGQGTLVTVSS
VL: QVLTQTLASVSAAVGGTVTINCQSSQSVYNNDYLAWFQQKSGQPPKQLIHSASKLASGVPSRFKGSGSGTQFTLTINDVQCDDAATYYCLGGYDCYSADCNVFGGGTEVVVK
Take B9: the “Fold decrease in affinity” value in experiment [3] was more than 500 fold.

B10: 240B10-1 mutant S29D (VH) (antibody, V domains shown)
VH: QSLEESGGRLVTPGGSLTLTCTVSGIDLDSYTMGWVRQAPGKGLEYIGIISGGGRTYYASWAKGRFTISKTSSTTVDLKVTSLTTEDTATYFCARIYTLWGQGTLVTVSS
VL: QVLTQTLASVSAAVGGTVTINCQSSQSVYNNDYLAWFQQKSGQPPKQLIHSASKLASGVPSRFKGSGSGTQFTLTINDVQCDDAATYYCLGGYDCYSADCNVFGGGTEVVVK
Take B10: in experiment [3], the “Fold decrease in affinity” value is more than 500 fold.

B11: 240B10-1 mutant G52K (VH) (antibody, V domains shown)
VH: QSLEESGGRLVTPGGSLTLTCTVSGIDLSSYTMGWVRQAPGKGLEYIGIISKGGRTYYASWAKGRFTISKTSSTTVDLKVTSLTTEDTATYFCARIYTLWGQGTLVTVSS
VL: QVLTQTLASVSAAVGGTVTINCQSSQSVYNNDYLAWFQQKSGQPPKQLIHSASKLASGVPSRFKGSGSGTQFTLTINDVQCDDAATYYCLGGYDCYSADCNVFGGGTEVVVK
With B11, the “Fold decrease in affinity” value in experiment [3] is more than 500 fold.

B12: 240B10-1 mutant S30A (VH) (antibody, V domains shown)
VH: QSLEESGGRLVTPGGSLTLTCTVSGIDLSAYTMGWVRQAPGKGLEYIGIISGGGRTYYASWAKGRFTISKTSSTTVDLKVTSLTTEDTATYFCARIYTLWGQGTLVTVSS
VL: QVLTQTLASVSAAVGGTVTINCQSSQSVYNNDYLAWFQQKSGQPPKQLIHSASKLASGVPSRFKGSGSGTQFTLTINDVQCDDAATYYCLGGYDCYSADCNVFGGGTEVVVK
As to B12, the “Fold decrease in affinity” value in experiment [3] was more than 500 fold.

B13: 240B10-1 mutant S30D (VH) (antibody, V domains shown)
VH: QSLEESGGRLVTPGGSLTLTCTVSGIDLSDYTMGWVRQAPGKGLEYIGIISGGGRTYYASWAKGRFTISKTSSTTVDLKVTSLTTEDTATYFCARIYTLWGQGTLVTVSS
VL: QVLTQTLASVSAAVGGTVTINCQSSQSVYNNDYLAWFQQKSGQPPKQLIHSASKLASGVPSRFKGSGSGTQFTLTINDVQCDDAATYYCLGGYDCYSADCNVFGGGTEVVVK
On to B13, for which, in experiment [3], the “Fold decrease in affinity” value was more than 500 fold.

B14: 240B10-1 mutant S29Q (VH) (antibody, V domains shown)
VH: QSLEESGGRLVTPGGSLTLTCTVSGIDLQSYTMGWVRQAPGKGLEYIGIISGGGRTYYASWAKGRFTISKTSSTTVDLKVTSLTTEDTATYFCARIYTLWGQGTLVTVSS
VL: QVLTQTLASVSAAVGGTVTINCQSSQSVYNNDYLAWFQQKSGQPPKQLIHSASKLASGVPSRFKGSGSGTQFTLTINDVQCDDAATYYCLGGYDCYSADCNVFGGGTEVVVK
As for B14, the “Fold decrease in affinity” value in experiment [3] is more than 500 fold.

B15: 240B10-1 mutant G52E (VH) (antibody, V domains shown)
VH: QSLEESGGRLVTPGGSLTLTCTVSGIDLSSYTMGWVRQAPGKGLEYIGIISEGGRTYYASWAKGRFTISKTSSTTVDLKVTSLTTEDTATYFCARIYTLWGQGTLVTVSS
VL: QVLTQTLASVSAAVGGTVTINCQSSQSVYNNDYLAWFQQKSGQPPKQLIHSASKLASGVPSRFKGSGSGTQFTLTINDVQCDDAATYYCLGGYDCYSADCNVFGGGTEVVVK
Turning to B15, the “Fold decrease in affinity” value in experiment [3] was more than 500 fold.

B16: 240B10-1 mutant D27P (VH) (antibody, V domains shown)
VH: QSLEESGGRLVTPGGSLTLTCTVSGIPLSSYTMGWVRQAPGKGLEYIGIISGGGRTYYASWAKGRFTISKTSSTTVDLKVTSLTTEDTATYFCARIYTLWGQGTLVTVSS
VL: QVLTQTLASVSAAVGGTVTINCQSSQSVYNNDYLAWFQQKSGQPPKQLIHSASKLASGVPSRFKGSGSGTQFTLTINDVQCDDAATYYCLGGYDCYSADCNVFGGGTEVVVK
On to B16, for which the “Fold decrease in affinity” value in experiment [3] is more than 500 fold.

B17: 240B10-1 mutant N30E (VL) (antibody, V domains shown)
VH: QSLEESGGRLVTPGGSLTLTCTVSGIDLSSYTMGWVRQAPGKGLEYIGIISGGGRTYYASWAKGRFTISKTSSTTVDLKVTSLTTEDTATYFCARIYTLWGQGTLVTVSS
VL: QVLTQTLASVSAAVGGTVTINCQSSQSVYENDYLAWFQQKSGQPPKQLIHSASKLASGVPSRFKGSGSGTQFTLTINDVQCDDAATYYCLGGYDCYSADCNVFGGGTEVVVK
B17: the “Fold decrease in affinity” value in experiment [3] is more than 500 fold.

B18: 240B10-1 mutant N30T (VL) (antibody, V domains shown)
VH: QSLEESGGRLVTPGGSLTLTCTVSGIDLSSYTMGWVRQAPGKGLEYIGIISGGGRTYYASWAKGRFTISKTSSTTVDLKVTSLTTEDTATYFCARIYTLWGQGTLVTVSS
VL: QVLTQTLASVSAAVGGTVTINCQSSQSVYTNDYLAWFQQKSGQPPKQLIHSASKLASGVPSRFKGSGSGTQFTLTINDVQCDDAATYYCLGGYDCYSADCNVFGGGTEVVVK
As for B18, in experiment [3], the “Fold decrease in affinity” value was more than 500 fold.

B19: 240B10-1 mutant G52R (VH) (antibody, V domains shown)
VH: QSLEESGGRLVTPGGSLTLTCTVSGIDLSSYTMGWVRQAPGKGLEYIGIISRGGRTYYASWAKGRFTISKTSSTTVDLKVTSLTTEDTATYFCARIYTLWGQGTLVTVSS
VL: QVLTQTLASVSAAVGGTVTINCQSSQSVYNNDYLAWFQQKSGQPPKQLIHSASKLASGVPSRFKGSGSGTQFTLTINDVQCDDAATYYCLGGYDCYSADCNVFGGGTEVVVK
For the molecule B19, the “Fold decrease in affinity” value in experiment [3] is more than 500 fold.
